From doi:10.1101/2020.12.03.409995, “Wild-type sTREM2 blocks Aβ aggregation and neurotoxicity, while the Alzheimer’s R47H mutant does the opposite” (bioRxiv, 2020) come the findings set out here.

In the assay the target is T1, HiLyte Fluor 488-labelled Aβ42 oligomers (human, UniProt P05067 672-713, HiLyte Fluor 488 label (position not given)).
T1 construct: amyloid beta-peptide 1-42 (Aβ42), human, the cut product of the amyloid precursor protein; Oligomeric species in the 6 hour aggregation mixture, told from monomers by photobleaching; also called Aβ oligomers; oligomeric Aβ; source: synthetic peptide, bought: AnaSpec; aggregated at 0.5 μM in PBS pH 7.4 for 6 hours
The experiment in a line: single-molecule TIRF two-colour coincidence detection; HiLyte Fluor 488 Aβ42 aggregated 6 hours at 0.5 μM in PBS pH 7.4, dye-labelled sTREM2 added and imaged on slides; monomers told from oligomers by photobleaching; chance coincidence subtracted. Particulars: both partners purified.

B1: dye-labelled wild-type sTREM2 (TREM2 ectodomain) for single-molecule TIRF (domain or fragment, UniProt Q9NZC2 19-143, looked up)
chain: HNTTVFQGVAGQSLQVSCPYDSMKHWGRRKAWCRQLGEKGPCQRVVSTHNLWLLSFLRRWNGSTAITDDTLGGTLTITLRNLQPHDAGLYQCQSLHGSEADTLRKVLVEVLADPLDHRDAGDLWF
modifications: fluorescent dye label: TAMRA in the results, AF647 in the methods (position not given)
notes: TREM2 residues 19-143, wild type; The labelled form of m10; also called TAMRA-dye labelled sTREM2; AF647-TREM2; source: Freestyle 293-F cells, transfected (pHLSec), purified from conditioned medium (IMAC, gel filtration), dye-labelled
Take B1: the binding result is recorded as “binds”.
